Results on 23 sequences are retold here after the Immune Epitope Database (IEDB).

For one test, the target named is HLA-A*68:02. As to the kind of experiment: IEDB peptide-MHC binding, cellular MHC/competitive/fluorescence; ≥ and ≤ were set here for values at or beyond the usual limits of such assays.
Another test has as its target HLA-A*02:01. In words: IEDB peptide-MHC binding, purified MHC/competitive/radioactivity; ≥ and ≤ were set here for values at or beyond the usual limits of such assays.
The target in the next test is HLA-A*02:02. Described as above.
A further test has as its target HLA-A*02:06. The description is as above.
Another test deals with HLA-A*02:03. The test is described as above.
[1] abbreviates: source organism: Hepacivirus hominis.
Where [2] appears, read: source organism: Vaccinia virus WR.
Setting [3] is: source organism: Mammarenavirus machupoense.
[4] abbreviates: source organism: Mammarenavirus lassaense.

What is called IC50 is the concentration needed to halve the response being measured.

Turning to KLLPQLPGV, the IC50 with HLA-A*68:02 (setting [1]) is 42400 nM; with HLA-A*02:01 (setting [1]), 1.7 nM; with HLA-A*02:02 (setting [1]) it was 51 nM; with HLA-A*02:06 (setting [1]), 1.7 nM; with HLA-A*02:03 (setting [1]), 5.2 nM.
Regarding KLLSTSNVIT, the IC50 with HLA-A*68:02 (setting [2]) is not below 70000 nM; with HLA-A*02:01 (setting [2]), 1120 nM; with HLA-A*02:02 (setting [2]), 2260 nM; with HLA-A*02:06 (setting [2]), 1550 nM; with HLA-A*02:03 (setting [2]) it was 3350 nM.
As to KLPTWLGAA, the IC50 in the test with HLA-A*68:02 (setting [2]) is not below 70000 nM; with HLA-A*02:01 (setting [2]) it was 207 nM; in the test with HLA-A*02:02 (setting [2]), 499 nM; with HLA-A*02:06 (setting [2]), 9.4 nM; with HLA-A*02:03 (setting [2]), 8 nM.
The corresponding values for KLPTWLGAAI are 6370 nM, 226 nM, 103 nM, 295 nM and 123 nM.
Turning to KLWAQCVQL, the IC50 worked out at 23100 nM with HLA-A*68:02 (source organism: SARS-CoV1); 4.7 nM in the test with HLA-A*02:01 (source organism: SARS-CoV1); 13 nM in the test with HLA-A*02:02 (source organism: SARS-CoV1); 9.5 nM in the test with HLA-A*02:06 (source organism: SARS-CoV1); 194 nM with HLA-A*02:03 (source organism: SARS-CoV1).
For KLYGYASLT, the IC50 stood at 11000 nM in the test with HLA-A*68:02 (setting [2]); 326 nM with HLA-A*02:01 (setting [2]); 76 nM with HLA-A*02:02 (setting [2]); 1990 nM with HLA-A*02:06 (setting [2]); 22 nM with HLA-A*02:03 (setting [2]).
Take KTIISEEYL: the IC50 was determined as 10900 nM with HLA-A*68:02 (setting [2]); 694 nM with HLA-A*02:01 (setting [2]); 916 nM in the test with HLA-A*02:02 (setting [2]); 150 nM with HLA-A*02:06 (setting [2]); 1220 nM with HLA-A*02:03 (setting [2]).
As to LAELLEMKYA, the IC50 in the test with HLA-A*68:02 (setting [2]) was 23300 nM; in the test with HLA-A*02:01 (setting [2]), 2510 nM; in the test with HLA-A*02:02 (setting [2]), 999 nM; with HLA-A*02:06 (setting [2]), 2450 nM; with HLA-A*02:03 (setting [2]) it was 1040 nM.
For the sequence LALTDVEKRI, the IC50 in the test with HLA-A*68:02 (setting [2]) came to 14900 nM; with HLA-A*02:01 (setting [2]), 1420 nM; with HLA-A*02:02 (setting [2]), 199 nM; in the test with HLA-A*02:06 (setting [2]), 2410 nM; with HLA-A*02:03 (setting [2]) it was 403 nM.
The corresponding values for LILSNKLLYA are 9790 nM, 169 nM, 468 nM, 36 nM and 122 nM.
In the same order, the values of LIYRQLTSNV are 6390 nM, 663 nM, 79 nM, 169 nM and 7.5 nM.
LLDCIMYQS: the IC50 with HLA-A*68:02 (setting [3]) came to 11300 nM; with HLA-A*02:01 (setting [3]), 1100 nM; with HLA-A*02:02 (setting [3]), 1540 nM; with HLA-A*02:06 (setting [3]), 3280 nM; in the test with HLA-A*02:03 (setting [3]) it was 2270 nM.
Consider LLDDFVEII, for which the IC50 in the test with HLA-A*68:02 (source organism: SARS-CoV1) was found to be 30200 nM; with HLA-A*02:01 (source organism: SARS-CoV1), 51 nM; in the test with HLA-A*02:02 (source organism: SARS-CoV1) it was 136 nM; in the test with HLA-A*02:06 (source organism: SARS-CoV1), 159 nM; in the test with HLA-A*02:03 (source organism: SARS-CoV1), 523 nM.
With LLEQLIENI, the IC50 was not below 70000 nM with HLA-A*68:02 (setting [2]); 1570 nM with HLA-A*02:01 (setting [2]); 702 nM with HLA-A*02:02 (setting [2]); 539 nM with HLA-A*02:06 (setting [2]); 1960 nM with HLA-A*02:03 (setting [2]).
LLKCVSDSWL: the IC50 with HLA-A*68:02 (setting [2]) came out at 9850 nM; with HLA-A*02:01 (setting [2]), 1530 nM; with HLA-A*02:02 (setting [2]), 76 nM; in the test with HLA-A*02:06 (setting [2]), 4730 nM; in the test with HLA-A*02:03 (setting [2]) it was 118 nM.
The corresponding values for LLLENKSLTI are 9580 nM, 439 nM, 982 nM, 1320 nM and 985 nM.
Turning to LLLEWLAEVV, the IC50 was 10800 nM with HLA-A*68:02 (source organism: SARS-CoV1); 0.37 nM with HLA-A*02:01 (source organism: SARS-CoV1); 0.31 nM with HLA-A*02:02 (source organism: SARS-CoV1); 0.52 nM in the test with HLA-A*02:06 (source organism: SARS-CoV1); 0.81 nM with HLA-A*02:03 (source organism: SARS-CoV1).
With LLLLSVGVGI, the concentration for half-maximal inhibition (IC50) with HLA-A*68:02 (setting [1]) stood at 52600 nM; in the test with HLA-A*02:01 (setting [1]) it was 764 nM; with HLA-A*02:02 (setting [1]), 2570 nM; in the test with HLA-A*02:06 (setting [1]), 714 nM; with HLA-A*02:03 (setting [1]), 605 nM.
In the case of LLLSICLGSL, the IC50 with HLA-A*68:02 (source organism: SARS-CoV1) was determined as 54900 nM; with HLA-A*02:01 (source organism: SARS-CoV1), 45 nM; with HLA-A*02:02 (source organism: SARS-CoV1) it was 20 nM; with HLA-A*02:06 (source organism: SARS-CoV1) it was 258 nM; with HLA-A*02:03 (source organism: SARS-CoV1), 104 nM.
In the case of LLLSTTEWQV, the IC50 with HLA-A*68:02 (setting [1]) came to 10100 nM; with HLA-A*02:01 (setting [1]), 7.1 nM; with HLA-A*02:02 (setting [1]) it was 18 nM; with HLA-A*02:06 (setting [1]), 13 nM; with HLA-A*02:03 (setting [1]), 101 nM.
Consider LLMALPHQA, for which the IC50 came out at 9880 nM with HLA-A*68:02 (setting [1]); 73 nM with HLA-A*02:01 (setting [1]); 52 nM in the test with HLA-A*02:02 (setting [1]); 1560 nM with HLA-A*02:06 (setting [1]); 10 nM with HLA-A*02:03 (setting [1]).
For the sequence LLMEGLKLLS, the 50% inhibitory concentration (IC50) stood at 8470 nM with HLA-A*68:02 (setting [4]); 12 nM in the test with HLA-A*02:01 (setting [4]); 78 nM with HLA-A*02:02 (setting [4]); 1750 nM with HLA-A*02:06 (setting [4]); 40 nM with HLA-A*02:03 (setting [4]).
In the case of LLNMRDLIV, the IC50 with HLA-A*68:02 (setting [2]) is 23200 nM; with HLA-A*02:01 (setting [2]), 42 nM; in the test with HLA-A*02:02 (setting [2]), 665 nM; with HLA-A*02:06 (setting [2]) it was 225 nM; with HLA-A*02:03 (setting [2]), 1.2 nM.
